Numbering of substitutions follows the chain as printed. Values belong to the binder of their own block, whether it stands above or below them.
Legend:
human CLDN6 [1] = target: T1, human CLDN6 (human, UniProt P56747 1-220); assay: FACS on CHO-K1-CLDN6 cells, against PiH1004 (FIG. 40)
T1 construct: whole, on cells; four-transmembrane protein; also called claudin-6; HEK293T-CLDN6
T1 sequence (looked up): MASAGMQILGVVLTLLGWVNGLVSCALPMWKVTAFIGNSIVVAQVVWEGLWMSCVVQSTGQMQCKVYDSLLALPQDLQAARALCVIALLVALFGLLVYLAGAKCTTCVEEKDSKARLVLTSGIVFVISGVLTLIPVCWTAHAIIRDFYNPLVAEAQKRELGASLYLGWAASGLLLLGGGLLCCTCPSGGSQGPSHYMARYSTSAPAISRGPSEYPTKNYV

human CLDN6 [2] = target: T1, human CLDN6; assay: FACS on HepG2 tumour cells; target on the cells taken as CLDN6
Protocol: (§1) 50 μL of an antibody to be tested was added to a 96-well plate, then 1×10⁵ cells were added to each well, and incubation was conducted at 4° C. for 1 h. Cells were washed three times with PBS. […] Finally, cells were washed three times with PBS, and signals were read using FACS. A binding capacity of the antibody to each tumor cell was analyzed based on detection data.

human CLDN6 [3] = target: T1, human CLDN6; assay: FACS on HEK293T-CLDN6 cells
Protocol: To detect a binding capacity of a chimeric or humanized antibody to CLDN6, a CLDN6-expressing cell line HEK293T-CLDN6 and a CLDN6-negative control cell line HEK293T were washed three times with PBS. 1×10⁵ test cells and 50 μL of an antibody solution to be tested were added to a 96-well plate, and incubated at 4° C. for 1 h. The cells were then washed three times with PBS. […] Finally, cells were washed three times with PBS, and signals were read using FACS.
An EC50 value (a concentration of an antibody that binds to half of binding sites at equilibrium) is calculated through nonlinear regression.

human CLDN6 [4] = target: T1, human CLDN6; assay: FACS on PA-1 tumour cells; target on the cells taken as CLDN6
Protocol: as §1

human CLDN6 [5] = target: T1, human CLDN6; assay: FACS on HepG2 tumour cells; target on the cells taken as CLDN6; remark: listed apart in the source
Protocol: as §1

B2: PiH2010 (antibody, human IgG1, kappa, V domains shown)
VH: QVQLVQSGAEVKKPGASVKVSCKASGYTFTDYNMHWVRQATGQGLEWIGYINPNNGATNYNQKFKGRATMTRNKSISTAYMELRSLRSEDTAVYNCARWDGYVYYYGMDYWGQGTLVTVSS
VL: DIQMTQSPSSLSASVGDRVTITCKASDHINNWLAWYQQKPGKVPRLLISGATSLETGVPSRFSGSGSGKDYTLTISSLQPEDVATYYCQQYWNTPYTFGGGTKLEIKR
notes: humanized from 54B5A7; IgG1; also called 54-VH6 + VL5
EC50 (human CLDN6 [2]): 1.4 µg/mL

B3: PiH2011 (antibody, human IgG1, kappa, V domains shown)
VH: B2 VH with M70L, R72V, N95Y
VL: B2 VL
notes: humanized from 54B5A7; IgG1; also called 54-VH7 + VL5
EC50 (human CLDN6 [2]): 4.7 µg/mL

B4: PiH1003 (antibody, human IgG1, kappa, V domains shown)
VH: B2 VH with T41P, I51V, N59S, R72V, N73D, K74T, I76T, A79V, R84S, M108L
VL: B2 VL with R45K, K69T, N93S
notes: humanized from 51C10H4; IgG1; also called 51-VH3 + VL3
EC50 (human CLDN6 [3]): 0.455 µg/mL
EC50 (human CLDN6 [4]): 0.883 µg/mL

B5: PiH2009 (antibody, human IgG1, kappa, V domains shown)
VH: B2 VH with N95Y
VL: B2 VL
notes: humanized from 54B5A7; IgG1; also called 54-VH5 + VL5
EC50 (human CLDN6 [2]): 1.11 µg/mL

B8: PiH1005 (antibody, human IgG1, kappa, V domains shown)
VH: B2 VH with T41P, I51V, N59S, N73D, K74T, I76T, A79V, R84S, N95Y, M108L
VL: B2 VL with D17G, K69T, N93S
notes: humanized from 51C10H4; IgG1; also called 51-VH1 + VL4
EC50 (human CLDN6 [3]): 0.372 µg/mL
EC50 (human CLDN6 [4]): 0.505 µg/mL
EC50 (human CLDN6 [5]): 2.35 µg/mL

B9: PiH1002 (antibody, human IgG1, kappa, V domains shown)
VH: QVQLVQSGAEVKKPGASVKVSCKASGYTFTDYNMHWVRQAPGQGLEWIGYVNPNNGATSYNQKFKGRVTMTVDTSTSTVYMELSSLRSEDTAVYNCARWDGYVYYYGLDYWGQGTLVTVSS
VL: B2 VL with R45K, K69T, N93S
notes: humanized from 51C10H4; IgG1; also called 51-VH2 + VL3
EC50 (human CLDN6 [3]): 0.635 µg/mL
EC50 (human CLDN6 [4]): 0.754 µg/mL

Other lines, results leading:

binding result (human CLDN6 [1]): binds
B1: PiH1004-VH-Mutation8-VL (antibody, human IgG1, kappa, V domains shown)
VH: B9 VH with G44S, V51L, V68A, T74K
VL: B2 VL with R45K, K69T, N93S
notes: improved antibody from PiH1004

EC50 (human CLDN6 [2]): 0.444 µg/mL
B6: PiH2012 (antibody, human IgG1, kappa, V domains shown)
VH: B2 VH with Q39K, G44S
VL: B2 VL
notes: humanized from 54B5A7; IgG1; also called 54-VH8 + VL5

binding result (human CLDN6 [1]): binds
B7: PiH1004-VH-Mutation11-VL (antibody, human IgG1, kappa, V domains shown)
VH: B9 VH with G44S, V68A, T74K, Y110F
VL: B2 VL with R45K, K69T, N93S
notes: as for B1
